Test results as given in the nanobody polyreactivity screen of Harvey et al. (2022).

Test: yeast display, Sf9 membrane polyspecificity reagent, FACS + sequencing; frameworks hold sequencing errors
Procedure, shortened: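 Nanobodies came from a synthetic yeast display library in Saccharomyces cerevisiae BJ5465, induced with galactose for 36–48 hours and stained for 1 hour at 4 °C with 10% biotinylated, detergent-solubilized Sf9 membrane reagent. Cells were enriched on streptavidin microbeads and then FACS-sorted, with low and high (top ~1%) gates set on anti-HA fluorescence for expression and streptavidin fluorescence for reagent binding. Each polyreactivity label reflects the gate a clone came from. Genes were amplified by colony PCR, sequenced by MiSeq 2 × 250 and filtered by CDR length.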

Row | Sequence | polyreactivity (PSR sort gate)
1 | QVQLVESGGGLVQAGGSLRLSCAPSGRSFASYAMGWYRQAPGKERELVAAISKSGGRTYYADSVKGRFTISRDNAKNTVYLQMNSLKPEDTAVYYCAAYFWTRSGTPNYDYWGQGTQVTVSS | high polyreactivity
2 | QVQLVESGRGLVQAGGSLRLSCAASGSTFRYYAMGWYRQAPGKERELVASITRGASTNYADSVKGRFTISRDNAKNTVYLQMNSLKPEDTAVYYCAADNYCHTFGGTDLRDDYWGQGTQVTVSS | low polyreactivity
3 | QVQLVESGGGLFQAGGSLRLSCAASGGTFDWYTMGWYRQAPGKERELVADITSGGSTYYADSVKGRFTISRDNAKNTVYLQMNSLKPEDTALYYCNKRDKVTYSYDYWGQGTQVTVSS | high polyreactivity
4 | QVQLVESGGGLVQAGGSLRLSCAASGRTFHGYAMGWYRQAPGNEREFVAAISSDGDSTYYADSVKGRFTISRDNAKNTVYLQMNSLKPEDTAVYYCAAERGYHGGGSGLYDYWGQGTQVTVSS | low polyreactivity
5 | QVQLVESGGGLVQAGGSLRLSCAASGRIFQYYAMGRYGQAPGKERELVARISSRGGSTYYADSVKGRFTISRDNAKNTVYLQMNSLKPEDTAVYYCNTRWYSSYYQPSYNYWGQGTQVTVSS | high polyreactivity
6 | QVQLVESGGGLVQAGGSLRLSCAASGSTFDTYAMGWYRQAPGKERELVAAISYRGGNTYYADSVKGRFTISRDNAKNTVYLQMNSLKPEDTAVYYCAASYFDPASIPVAFNYWGQGTQVTVSS | low polyreactivity
7 | QVQLVESGGGLVQAGGSLRLSCAASGRTFLAIGWYRQAPGKETELVATINGSDGNTYYADSVKGRFTISRDNAENTVYLQMNILKPEDTAVYYCAKRADHTYLPLRPGYPEYNYWRQGTQVTVSS | low polyreactivity
8 | QVQLVESGGGLVQAGGSLRLSCAASGYTFLISAMGWYRQAPGKERELVAVISSGGSTSYADSVKGRFTISRDNAKNTVYLQMNSLKPEDSAVYYCAAALAGGRRGGDYWGQGTQVTVSS | low polyreactivity
9 | QVQLVESGGGLVQAGGSRSLSCAASGRIFTVYAMGWYRQAPGKERELVAAISGRGGRTTYADSVKGRFTISRDNAKNTVFLQMNSLKPEDTAVYYCAAAYLRYVSTQYHYDYWGEGTQVTVSS | low polyreactivity
10 | QVQLVESGGGLVQAGGSLRLSCAASGLTFGHYDMGWYRQAPGKERELVAAITWSGGSTYYADSVKGRFTISRDNAKNTVYLQMNSLKPEDTAVYYCNADQPILYYSYRGVGYDYWGQGTQVTVSS | high polyreactivity
11 | QVQLVESGVGLVQAGGSVRLSCAASGSIFSINAMGWYRQAPGKERELVAAISASGGSTYYADSVKGRFTISRDNAKNTVYLQMNSLKPEDTAVYYCAVYTHDRFSRYDQGDYWGQATQVTVSS | low polyreactivity
12 | QVQLVESGGGLVQAGGSLSLSCAASGSIFPYYAMGWYRQAPGKESELVAAISRGGGTTYYADSVKGRFTISRDNAKNSVYLQMNSLKPEDTAVYSGAARRWGEYDYWGQGTQVTVSS | high polyreactivity
13 | QVQLVESGGGLVQAGGSLRLSCAASGLTFYGYGMGWYRQAPGKERELVASITSGGNTYYADSVKGRFTISRDNAKNTVYLRMNSLKPEDTAVYYCAVTAIALYYSSGYYWGQGTQVTVSS | low polyreactivity
14 | QVQLVESGGGLVQAGGSLRLSCAASGSIFYFNAMGWYRQAAGKEWELVATISRRGGSTYYADSVKGRFTISRDNAKKTVYLQMNSLKPEDTAVYYCAADYYTLYPVYIKRYGYWGQGTQVTVSS | high polyreactivity
15 | QVQLVESGGGLVQAGGSLRLSCAASGRTFKYNAMGWYRQAPGKERELVAAIRKSGTRTYYADSVKGRFTISRDNAKNTVYLQMNSLKPEDTAVYYCNRVGFDYWGQGTQVTVSS | low polyreactivity
16 | QVQLVESGGGLVQAGGSLRLSCAASGSTFLYYAMGWYRQAPGKEREFVAAISISGGSTYYADSVKGRFTISRDNAKNTVYLHMNSLKPEDTAVYYFAARKKEYKPGNYWGQGTQVTVSS | low polyreactivity
17 | QVQLVESGGGLVQAGGSLRLSCAASGITFHVYAMGWYRQAPGKEREFVASISWSGGSTYYADSVKGRFTISRDNAKNTVYLQMNSLKPEDTAVYYALLTVLSAVPYSVRYDYWGQGTQVTVSS | high polyreactivity
18 | QVQLVESGGGLVQAGGSLRLSCAASGSTFGRNAMGWYRQAPGKERELVASISRRGGSTYYADSVKGRFTISRDNAKNTVYLQMNSLKPEDTAVYYCNARYYFSDYGYWGQGTQVTVSS | high polyreactivity
19 | QVQLVESGGGLVQAGGSLRLSCAASGFTFFRYAMGWYRQAPGKERELVAAISYSGGNTYYADSVKGRFTISRDNAKNTVYLQMNSLKPEDTAVYYCNAVHFWKYDYWGQGTQVTVSS | high polyreactivity
20 | QVQLVESGGGLVQAGGSLRLSCAASGRIFYNYAMGWYRQAPGKERELVAAISGSGGSTYYADSVKGRFTISRDNAKNTVYLQMNSLKPEDTAVYYCAADSYVSPEVRFDYWGQGTQVTVSS | low polyreactivity
21 | QVHLVESGGGLVQAGGSLRLSCPASGSTIRRYAMGWYRQPHGKERELVAAIRQRGTYTYYADSVKGRFTISRDTAKNTVYLQMNSLKPEDTAVYYCSGVPSLWLFNSWGQGTQVTVSS | high polyreactivity
22 | QVQLVESGGRLVQAVGSLRLRCAAAGRTFPVYAMGWYRQAPGKERELVAAIRGRSVRKYYADSVKGRFTISRDYAKNTVYLQMNSLKPEDTAVYYCAAYYLNPGMDYWGQGTQVTVSS | high polyreactivity

Row | Sequence | polyreactivity (PSR sort gate)
23 | QVQLVESGGGLVQAGGSLRLSCAASGLTFYHYAMGWYRQAPGKERELVADISSGGSTSYADSVKGRFTISRDNAKNTVYLQMNSLKPEDTAVFYCAADYTWERYHRQIFRLDYWGQGTQVTVSS | low polyreactivity
24 | QVQLVESVGGLDQAGGSLRLSCAASALIFPRYDMGSYRQAPGKERELDAAITSGGGTYNADSVKGRFTISRDNAKITVYLQMNSLKPEDTAVYYCAAGPVFGGGGYDYWGQGTQVTVSS | low polyreactivity
25 | QVQLVESGGGLVQAGGSLRLSCAASGSIFYGNAMGWYRQAPGKERELVAAISARGGSTNYADSVKGRFTISRDNAKNTVYLQMNSLKPEDTAVYYCAADTPVWSGYWYDYWGQGTQVTVSS | low polyreactivity
26 | QVHLVESRGGLDQAGGSLRLSCAASGRTVYQYAMGRNRQAPGKERELVAAITRSGSRTYYADTVKGRFTISRDNAKNTVYLQMNSLKPEDTAVYYCAADGHGGFPIDEYYYWGQGTQVTVSS | high polyreactivity
27 | QVQLVDSGGGLVQAGGSLRLSCAASGSIFTAYAMGWYRQAPGKERELVAAITSGGSTNYADSVKGRFTISRDNAKNTVYLQMNSLKPEDTAVYYCNADDYWLDSWSSVLWYDYWGQGTQVTVSS | low polyreactivity
28 | QVQLVESGGGLVQAGGSLRLSCASSGFTSWDNDMGWYRQAPGKERELVAAISRGGSTNYADSVKGRFTISRDNAKDTVYLQMNSLKPVDTAVYYCNADFAPWDKQDYPYDYDYWGQGTQVTVSS | low polyreactivity
29 | QVQLVESGGGLVQAGGSLRLSCAASGFIFDSYAMGWYRQAPGKERELVAAISWSGGRTYYADSVKGRFTISRDNAKNTVFLQMNSLKPEDSAVYYCAADTWFGMDYWGQGTEVTVSS | high polyreactivity
30 | QVQLVESGGGLVQAGGSLRLSCAASGSTIGRYAMGWYRQAPGKERELVASIRSSGSTYYADSVKGRFTISRDNAKNTVYLQMNSLKPEDTAVYYCNRGVYYGSRYNYWGQGTQVTVSS | high polyreactivity
31 | QVQLVESGGGLVQAGGSLRLSCAASGRIFNRNAMGWYRQAPGKERELVAAITGSGGITYYADSVKGRFTISRDNAKNTVYLQMNSLKPEDTAVYYCAARAKFLSLPTYDYWGQGTQVTVSS | high polyreactivity
32 | QVQLVESGGGLVQAGGSLRLSCAASGFIFYYYTMGWYTQAPGKERELVAAISKSGGNTYYADSVKGRFTISRDNAKNTVYLQMNSLKPEVTAVYYCAASRYNTVTYYYSGQGTQVTVSS | high polyreactivity
33 | QVQLVESGGGLVQAGGSLRLSCAASGFTFRFNAMGWYRQAPGKERELVAAIRQSGGSTYYADSVKGRFTISRDTAKNTVSLQMNSLKPEDTAVYYCATGRSRIRNFGYWGQGTQVTVSS | high polyreactivity
34 | QVQLVESGGGLVHAGGSLRLSCAASGSIFVGYAMGWYRQAPGKERELVARISRSGTSTYYADSVKGRFTISRDNAKNTVYLQMNSLKPEDTAVYYCNATVSRYSGYQRGHYWRYDYWGQGTQVTVSS | high polyreactivity
35 | QVQLVESGGGLVQAGGSLRLSCAASGFTSSINAMGWYRQEPGKERELVAAIRSGGSTNYADSVKGRFTISRDNAKNTVYLQMNSLKPEDTAVYYCAAVTRVYGKTMGYWGQGTQVTVSS | high polyreactivity
36 | QVQLVESGGGLVQAGGSLRLSCAASVFIFGYNAMGWYRQAPGKERELVAAISSSGGSTYYADSVKGRFTISRDNAKNTVYLQMNSLKPEDTAVYYCAARPVALRKYDYWGQGTQVTVSS | low polyreactivity
37 | QVHLVESGGGLVHAGGSLRLSCAASGSTFPGYGMGWYRQAPGQERELVATNRNGGITNYADSVKGRFTISRDNAKNTVYLQMNSLKAEDTAVYYCAADVVQYLYYFRLDYWGQGTQVTVSS | low polyreactivity
38 | QVQLQESGGGLVQAGGSPRLSCAASDNIFPDSVMCWYRQAPGNERELVATIGFGATTNYADSVKGRFTISRDNAKNTVYLQMNSLKTEYTAVYYCAADPLNFDYFCYWGQGTQVTVSS | low polyreactivity
39 | QVQLVESGGGLVQAGGSLRLSCAASGFTFSYYAMGWYRPAPGKERELVAAITSGGSTYYADYVKGRFTISRDNAKNTVYLQMNSLKPEDTAVYYCNADGWYYPTDDYWGQGTQVTVSS | low polyreactivity
40 | QVQLVESGGGLVQAGGSLRLSCAASGRIFRYYAMGWYRQAPGIERELVAAISYRGGSTYYADSVKGRFTISRDNAKNTVYLQMNSLKPEDTAVYYCNIVPRIDTRYDYWGQGTQVTVSS | high polyreactivity
41 | QVQLLESGGGLVQAGGSLRLSCAASGRIFGSNAMGWYRQAPGKERELVAAITRGGSTNYADSVKGRFTISRDNAKNTVYLQMNSLKPEDTAVYYCAVRWYRKYNYWGQGTQVTVSS | high polyreactivity
42 | QVQLVESGGGLVQAGGSLRISCAASGRIFDLYAMGWYRQPPGKERELVASISSDGSTNYADSVKGRFTISRDNAKNTVYLQMNSLKPEDTAVYYCATRKGRRYGYNYWGQGTQVTVSS | high polyreactivity
43 | QVQLVESGGGLVQAGGSLRLSCAASGSTFWFSAMGWYRQEPGKERELVAAITWSGGRTYYADSVKGRFTISRDNAKNTVYLQLNSLKPEDTAVYYCNKAYPQFGPLDDWGQGTQVTVSS | low polyreactivity
